Measured values published in US20220298478A1.

Biological target: full length mesothelin (NM_005823) on target cells (human) (UniProt Q13421)
Assay: cell-based or functional assay

Chain of full length mesothelin (NM_005823) on target cells (human) (Q13421 other isoform, or with tags, fused parts or gaps limits assumed): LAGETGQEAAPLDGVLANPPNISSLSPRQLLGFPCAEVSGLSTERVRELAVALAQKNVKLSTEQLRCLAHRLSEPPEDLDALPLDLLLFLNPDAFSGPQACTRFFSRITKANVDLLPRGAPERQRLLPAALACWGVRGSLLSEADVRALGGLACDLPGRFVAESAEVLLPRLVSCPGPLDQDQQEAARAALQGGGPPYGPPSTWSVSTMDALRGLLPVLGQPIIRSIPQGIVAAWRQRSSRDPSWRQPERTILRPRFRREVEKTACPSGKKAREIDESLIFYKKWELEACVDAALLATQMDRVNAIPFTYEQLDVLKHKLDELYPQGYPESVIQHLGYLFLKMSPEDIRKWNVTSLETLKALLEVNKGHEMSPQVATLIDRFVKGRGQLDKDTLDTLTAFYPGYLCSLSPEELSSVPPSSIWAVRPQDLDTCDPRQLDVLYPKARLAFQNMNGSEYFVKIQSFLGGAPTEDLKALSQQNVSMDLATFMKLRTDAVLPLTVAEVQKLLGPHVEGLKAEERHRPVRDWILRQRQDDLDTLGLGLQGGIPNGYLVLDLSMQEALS

B1: SD1 CD3ε-TFP (protein, part only; not given: linker and CD3 epsilon subunit, part only)
chain, part: EVQLVESGGGLVQPGGSLRLSCAASGGDWSANFMYWYRQAPGKQRELVARISGRGVVDYVESVKGRFTISRDNSKNTLYLQMNSLRAEDTAVYYCAVASYWGQGTLVTVSS
Work on B1 yielded a tumor cell lysis (luciferase assay), E:T 1-to-1, patients 1, 2, 4 and 5 of 50%, a tumor cell lysis (luciferase assay), E:T 1-to-5, patients 4 and 5 of 50% and a tumor cell lysis (luciferase assay), E:T 5-to-1, patient 3 of 35%. For the same binder, the tumor cell lysis (luciferase assay), E:T 5-to-1, patients 1, 2, 4 and 5 was 75 to 97%.
